# Measurements reported in patent US7820795B2, “Lactobacillus fermentum N-desoxyribosyl transferases and the use thereof for enzymatic synthesis of 2′, 3′—didesoxynucleosides and 2′,3′- didehydro-2′,3′- didesoxynucleosides” (Institut Pasteur, priority 2004, dated 2010).
# Where a chain is given by its changes, count along the chain named. Names may count otherwise.
# T1: Lactobacillus fermentum N-deoxyribosyl transferase (NTD, LF), native/wild type, SEQ ID No. 2 (Limosilactobacillus fermentum, UniProt Q6YNI5)
# T1 construct: crude extract or purified
# T1 sequence (Q6YNI5 1-168): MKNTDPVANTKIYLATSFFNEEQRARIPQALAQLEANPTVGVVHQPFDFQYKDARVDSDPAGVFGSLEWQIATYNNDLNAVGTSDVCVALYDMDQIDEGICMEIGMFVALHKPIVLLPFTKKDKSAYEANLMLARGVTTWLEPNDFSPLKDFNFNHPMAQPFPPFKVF
# T2: Lactobacillus fermentum N-deoxyribosyl transferase (NTD) variant LFA15T, mutation A15T, SEQ ID No. 4 (Limosilactobacillus fermentum, UniProt Q6YNI5, A15T)
# T2 construct: crude extract or purified
# T2 sequence (Q6YNI5 1-168 A15T): T1 sequence (Q6YNI5 1-168) with A15T
# B1: Lactobacillus fermentum N-deoxyribosyl transferase (NTD, LF), native/wild type, SEQ ID No. 2 (Limosilactobacillus fermentum) (protein)
# chain: T1 sequence (Q6YNI5 1-168)
# notes: crude extract or purified
# B2: Lactobacillus fermentum N-deoxyribosyl transferase (NTD) variant LFA15T, mutation A15T, SEQ ID No. 4 (Limosilactobacillus fermentum; A15T) (protein)
# chain: T1 sequence (Q6YNI5 1-168) with A15T
# notes: crude extract or purified
# Tests used:
# [1] = tested on: HIV (human immunodeficiency virus); conditions: cited from earlier work
# [2] = molecular target: T1, Lactobacillus fermentum N-deoxyribosyl transferase (NTD, LF), native/wild type, SEQ ID No. 2; assay: Enzymatic activity tests (dT+C, ddT+C and d4T+C reactions), native enzyme LF; format: biochemical; conditions: deoxyribosyl donor + C (cytosine)
# Protocol: (§1) 50 μl of enzymatic extract is added to 200 μl of 100 mM citrate buffer, pH 6.44, in the presence of 3 mM ddU or dU final and of 1 mM C final for the strain PAK9, the whole is incubated at 37° C. The progress of the reaction is monitored by TLC (silica; eluent: MeOH—CH2Cl2 (20/80)). […] The disappearance of the substrates and the formation of the products were also quantified by HPLC analysis. The different products are separated by analytical HPLC with a reversed-phase column (100-5C18) using a flow rate of 1 ml/min and a linear gradient of 5-25% CH3CN in a 10 mM triethyl ammonium acetate buffer at pH 7.5 for 20 minutes.
# (§2) were used as primer in an amplification reaction under standard conditions using the ntd gene of L. fermentum cloned in pSU19 (pLF6) as DNA matrix. The amplification product was digested by the restriction enzymes Nde1 and BamH1 for 2 hours at 37° C., purified on agarose gel and inserted into the plasmid pET24a digested by the same enzymes then the ligation mixture is used to transform the strain β 2033. The plasmid DNA from the colonies was prepared and digested by the enzymes Nde1 and BamH1. […]
# (§3) The cells are then centrifuged for 15′ at 4000 rpm at 4° C., washed in 50 ml of phosphate buffer then the pellet obtained after centrifugation is preserved overnight at −20° C. […] The fractions are then analyzed by SDS-PAGE gel and the enzymatic activity determined. […] The protein concentration is determined by measuring the OD at 280 nm. […]
# (§4) The enzymatic activities of the native and mutant N-deoxyribosyl transferases of L. leichmannii (LL and LL G9S) and of L. fermentum (LF and LFA15T) in the exchange reactions dT+C ? dC+T, ddT+C ? ddC+T and d4T+C ? d4C+T were evaluated starting from crude extracts or purified proteins.
# (§5) These different values were measured according to the protocol described in the literature [P A Kaminski (2002) “Functional cloning, heterologous expression and purification of two different N-deoxyribosyl transferases from Lactobacillus helveticus” J. Biol. Chem; vol. […]
# [3] = molecular target: T2, Lactobacillus fermentum N-deoxyribosyl transferase (NTD) variant LFA15T, mutation A15T, SEQ ID No. 4; assay: Enzymatic activity tests (dT+C, ddT+C and d4T+C reactions), mutated enzyme LFA15T; format: biochemical; conditions: mutant LFA15T; deoxyribosyl donor + C (cytosine)
# Protocol: (§6) The sequencing of the plasmids present in the selected transformants of PAK 9 made it possible to identify a mutation in the sequence (ntd) having the effect of substituting a residue T for the residue A in position 15 in the corresponding protein sequence (SEQ ID No. 2) (mutation called A15T).
# 50 μl of enzymatic extract is added to 200 μl of 100 mM citrate buffer, pH 6.44, in the presence of 3 mM ddU or dU final and of 1 mM C final for the strain PAK9, the whole is incubated at 37° C. The progress of the reaction is monitored by TLC (silica; eluent: MeOH—CH2Cl2 (20/80)). […] The disappearance of the substrates and the formation of the products were also quantified by HPLC analysis. […]
# as §3
# The enzymatic activities of the native and mutant N-deoxyribosyl transferases of L. leichmannii (LL and LL G9S) and of L. fermentum (LF and LFA15T) in the exchange reactions dT+C ? dC+T, ddT+C ? ddC+T and d4T+C ? d4C+T were evaluated starting from crude extracts or purified proteins. […]
# [4] = exchange reaction dT + C (transfer of deoxyribose), specific activity of N-deoxyribosyl transferases; format: biochemical; conditions: for specific activity, dT + C: relative, 100% = specific activity of NTD of L. leichmannii (LL) in dT + C, crude extracts or purified proteins
# Protocol: (§7) The cells are then centrifuged at 4000 rpm for 30 minutes at 4° C., the pellet is resuspended in 10 ml of phosphate buffer (Na2HP04+NaH2PO4) at 50 mM (pH=7.5). After centrifugation, the pellet is resuspended in 1 ml of the same buffer. The cells, preserved in ice, are then subjected to three cycles of 30 s of sonication and 30 s of rest. After centrifugation at 12000 rpm for 2×15 minutes at 4° C., the supernatants are recovered and stored at −20° C.
# as §1
# (§8) The cells are then centrifuged for 15′ at 4000 rpm at 4° C., washed in 50 ml of phosphate buffer then the pellet obtained after centrifugation is preserved overnight at −20° C. The bacterial pellet resuspended in 20 ml of phosphate buffer is then lysed by passage through a French press at 14000 psi. The lysate is centrifuged for 90′ at 50,000 rpm. The supernatant containing the soluble proteins is then precipitated with ammonium sulphate (40% saturation). […] The fractions are then analyzed by SDS-PAGE gel and the enzymatic activity determined. […] The protein concentration is determined by measuring the OD at 280 nm. […]
# as §4
# [5] = exchange reaction ddT + C (transfer of dideoxyribose), specific activity of N-deoxyribosyl transferases; format: biochemical; conditions: for specific activity, ddT + C: relative, 100% = specific activity of NTD of L. leichmannii (LL) in dT + C, crude extracts or purified proteins
# Protocol: as §7, §1, §8, §4
# [6] = exchange reaction d4T + C (transfer of didehydroribose), specific activity of N-deoxyribosyl transferases; format: biochemical; conditions: for specific activity, d4T + C: relative, 100% = specific activity of NTD of L. leichmannii (LL) in dT + C, crude extracts or purified proteins
# Protocol: as §7, §1, §8, §4
# [7] = substrate: Cc1cn([C@H]2C=C[C@@H](CO)O2)c(=O)[nH]c1=O; assay: Enzymatic activity tests (dT+C, ddT+C and d4T+C reactions), native enzyme LF; format: biochemical, Lactobacillus fermentum; conditions: other: native LF; deoxyribosyl donor + C (cytosine); 37.0 °C
# Protocol: as §1
# (§9) were used as primer in an amplification reaction under standard conditions using the ntd gene of L. fermentum cloned in pSU19 (pLF6) as DNA matrix. The amplification product was digested by the restriction enzymes Nde1 and BamH1 for 2 hours at 37° C., purified on agarose gel and inserted into the plasmid pET24a digested by the same enzymes then the ligation mixture is used to transform the strain β 2033. The plasmid DNA from the colonies was prepared and digested by the enzymes Nde1 and BamH1. Those, the sequence of which was correct, were used to transform the strain BL21 (DE3)/plysS (Novagen). The plasmid DNA of the mutant pSU19NLFA15T selected previously was prepared then digested by the enzymes Nde1 and BamH1. The corresponding fragment Nde1-BamH1 was then inserted into the plasmid pET24a digested by the same enzymes in order to produce the expression plasmid pETLFA15T useful to the expression of the mutated protein. A strain of E. coli transformed using the plasmid pETLFA15T was deposited at the CNCM (INSTITUT PASTEUR, 25 rue du Docteur Roux, F-75724 PARIS Cedex 15) on 22 Mar. 2004 under accession number I-3192. The overproduction of the two N-deoxyribosyl transferases, native and mutated, was obtained from cultures of this strain in 500 ml of LB medium supplemented with Km and Cm. These cultures were induced at an OD600=0.6 by the addition of IPTG (0.4 mM), the incubation being continued for 2 hours 30 minutes at 37° C.
# (§10) The cells are then centrifuged for 15′ at 4000 rpm at 4° C., washed in 50 ml of phosphate buffer then the pellet obtained after centrifugation is preserved overnight at −20° C. The bacterial pellet resuspended in 20 ml of phosphate buffer is then lysed by passage through a French press at 14000 psi. The lysate is centrifuged for 90′ at 50,000 rpm. The supernatant containing the soluble proteins is then precipitated with ammonium sulphate (40% saturation). The precipitate obtained after centrifugation at 13900 rpm (20,000 g) for 30′ at 4° C. is resuspended in 1 ml of 100 mM phosphate buffer, pH 7.5, 1.5 M NaCl, then deposited on a Sephacryl S200 gel filtration column (Amersham-Pharmacia). The fractions are then analyzed by SDS-PAGE gel and the enzymatic activity determined. […] The protein concentration is determined by measuring the OD at 280 nm.
# (§11) The measurement of the enzymatic activities is carried out as described in paragraph 4.2.
# as §4
# (§12) These different values were measured according to the protocol described in the literature [P A Kaminski (2002) “Functional cloning, heterologous expression and purification of two different N-deoxyribosyl transferases from Lactobacillus helveticus” J. Biol. Chem; vol. 277; 14400-14407]. […] The activities are increased respectively by 60% and 54%.
# [8] = substrate: Cc1cn([C@H]2CC[C@@H](CO)O2)c(=O)[nH]c1=O; assay: as above; format: biochemical, Lactobacillus fermentum; conditions: other: native LF; deoxyribosyl donor + C (cytosine); 37.0 °C
# Protocol: as §1, §9, §10, §11, §4, §12
# [9] = substrate: Cc1cn([C@H]2C[C@H](O)[C@@H](CO)O2)c(=O)[nH]c1=O; assay: as above; format: biochemical, Lactobacillus fermentum; conditions: other: native LF; deoxyribosyl donor + C (cytosine); 37.0 °C
# Protocol: as §1, §9, §10, §11, §4, §12
# [10] = enzymatic activity test (kinetic constants), ddT+C reaction; format: biochemical
# Protocol: as §12
# [11] = enzymatic activity test (kinetic constants), d4T+C reaction; format: biochemical
# Protocol: as §12
# [12] = substrate: Cc1cn([C@H]2CC[C@@H](CO)O2)c(=O)[nH]c1=O; assay: Enzymatic activity tests (dT+C, ddT+C and d4T+C reactions), mutated enzyme LFA15T; format: biochemical, Lactobacillus fermentum; conditions: other: mutant LFA15T; deoxyribosyl donor + C (cytosine); 37.0 °C
# Protocol: as §6, §1
# as §2, with “BamH1. Those, the sequence of which was correct, were used to transform the strain BL21 (DE3)/plysS (Novagen). The plasmid DNA of the mutant pSU19NLFA15T selected previously was prepared then digested by the enzymes Nde1 and BamH1. The corresponding fragment Nde1-BamH1 was then inserted into the plasmid pET24a digested by the same enzymes in order to produce the expression plasmid pETLFA15T useful to the expression of the mutated protein.” for “BamH1.”
# as §3, §4, §5
# [13] = substrate: Cc1cn([C@H]2C[C@H](O)[C@@H](CO)O2)c(=O)[nH]c1=O; assay: as above; format: biochemical, Lactobacillus fermentum; conditions: other: mutant LFA15T; deoxyribosyl donor + C (cytosine); 37.0 °C
# Protocol: as §6, §1
# as §2, with “BamH1. Those, the sequence of which was correct, were used to transform the strain BL21 (DE3)/plysS (Novagen). The plasmid DNA of the mutant pSU19NLFA15T selected previously was prepared then digested by the enzymes Nde1 and BamH1. The corresponding fragment Nde1-BamH1 was then inserted into the plasmid pET24a digested by the same enzymes in order to produce the expression plasmid pETLFA15T useful to the expression of the mutated protein.” for “BamH1.”
# as §3, §4, §5
# [14] = mutant LFA15T versus native enzyme LF
# [15] = catalytic effectiveness Kcat/Km
# [16] = mutated enzyme versus native enzyme
molecule,measurement,setting,value
"Nc1ncnc2c1ncn2[C@H]1CC[C@@H](CO)O1 [ddA, 2′,3′-dideoxyadenosine]",inhibition of replication of HIV,[1],effectively inhibit the replication of HIV
Cc1cn([C@H]2CC[C@@H](CO)O2)c(=O)[nH]c1=O [ddT],Kcat,[2],0.038 µmol/s/µg
same,Kcat,[3],0.156 µmol/s/µg
Cc1cn([C@H]2C[C@H](O)[C@@H](CO)O2)c(=O)[nH]c1=O [dT],Kcat,[2],0.665 µmol/s/µg
same,Kcat,[3],0.242 µmol/s/µg
"OC[C@@H]1CC[C@H](n2cnc3c(O)ncnc32)O1 [ddl, 2′,3′-dideoxyinosine]",inhibition of replication of HIV,[1],effectively inhibit the replication of HIV
"Cc1cn([C@H]2C=C[C@@H](CO)O2)c(=O)[nH]c1=O [d4T, reference compound]",Kcat,[2],0.56 µmol/s/µg
B1,"specific activity, dT + C",[4],76.5%
same,"specific activity, ddT + C",[5],0.9%
same,"specific activity, d4T + C",[6],2.1%
same,Km,[7],1250 µM
same,Vmax,[7],24 µmol/s
same,Km,[8],80 µM
same,Vmax,[8],5.7 µmol/s
same,Km,[9],124 µM
same,Vmax,[9],6.65 µmol/s
B2,"factor by which activity is reduced, transfer of deoxyribose",[4]; [14],7
same,"specific activity, dT + C",[4],10.7%
same,"factor by which activity is increased, transfer of dideoxyribose",[5]; [14],3
same,"specific activity, ddT + C",[5],2.5%
same,"factor by which activity is increased, transfer of didehydroribose",[6]; [14],35
same,"specific activity, d4T + C",[6],73.5%
same,"times more effective than native enzyme LF, ddT+X exchange",[10]; [15],60 times
same,increase of catalytic activity on ddT,[10]; [16],54%
same,"times more effective than native enzyme LF, d4T+X exchange",[11]; [15],7.5 times
same,increase of catalytic activity on d4T,[11]; [16],60%
same,Km,[12],53 µM
same,Vmax,[12],7.8 µmol/s
same,Km,[13],371 µM
same,Vmax,[13],9.7 µmol/s
